Here are results for 1 substance from paper PMC2694229.

The data set concerns PCBP2. The data set is described as follows: competition EMSA.

The Kd is the equilibrium constant for the complex coming apart. Low readings indicate a tighter complex, high ones a looser complex. Substance poliovirus stem-loop IV RNA showed a Kd of 15 nM.
